Article PMC4598761, “Co-Expression of NEU2 and GBA3 Causes a Drastic Reduction in Cytosolic Sialyl Free N-glycans in Human MKN45 Stomach Cancer Cells—Evidence for the Physical Interaction of NEU2 and GBA3” (Biomolecules, 2015)

Biological target: T1, His-GBA3-HA (recombinant epitope-tagged cytosolic β-glycosidase GBA3) (human, UniProt Q9H227 1-469)
T1 construct: GBA3, cytosolic β-glycosidase, human; Construct pDEST17-His-GBA3-HA; also called β-galactosidase/β-glucosidase; source: E. coli BL21(AI), purified (Ni-Sepharose 6 Fast Flow); not shown: His6, N-terminal, kept; HA, C-terminal, kept
T1 sequence (looked up): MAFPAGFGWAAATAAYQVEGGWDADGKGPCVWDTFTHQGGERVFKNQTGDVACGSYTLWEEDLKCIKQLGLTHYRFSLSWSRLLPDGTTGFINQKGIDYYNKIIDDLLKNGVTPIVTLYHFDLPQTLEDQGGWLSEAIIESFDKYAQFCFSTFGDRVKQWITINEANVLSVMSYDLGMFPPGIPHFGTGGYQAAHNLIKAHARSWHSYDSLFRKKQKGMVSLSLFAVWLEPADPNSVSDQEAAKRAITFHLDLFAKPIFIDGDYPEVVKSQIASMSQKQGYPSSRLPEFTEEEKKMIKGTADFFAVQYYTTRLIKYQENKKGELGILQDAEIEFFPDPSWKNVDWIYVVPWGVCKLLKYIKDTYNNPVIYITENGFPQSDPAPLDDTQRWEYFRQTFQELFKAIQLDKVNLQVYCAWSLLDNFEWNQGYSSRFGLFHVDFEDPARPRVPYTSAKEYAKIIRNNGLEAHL
Experiment: pull-down; purified recombinant proteins mixed overnight at 4 °C (1.5 mg/mL each), precipitated with 20 μL Ni-Sepharose 6 Fast Flow for 1 h at 4 °C (His-tagged protein held), washed three times with PBS, western blotting
Details: both partners purified

- binding result: binds
B1: GST-NEU2 (recombinant cytosolic sialidase NEU2) (enzyme, human, UniProt Q9Y3R4 1-380, looked up)
chain: MASLPVLQKESVFQSGAHAYRIPALLYLPGQQSLLAFAEQRASKKDEHAELIVLRRGDYDAPTHQVQWQAQEVVAQARLDGHRSMNPCPLYDAQTGTLFLFFIAIPGQVTEQQQLQTRANVTRLCQVTSTDHGRTWSSPRDLTDAAIGPAYREWSTFAVGPGHCLQLHDRARSLVVPAYAYRKLHPIQRPIPSAFCFLSHDHGRTWARGHFVAQDTLECQVAEVETGEQRVVTLNARSHLRARVQAQSTNDGLDFQESQLVKKLVEPPPQGCQGSVISFPSPRSGPGSPAQWLLYTHPTHSWQRADLGAYLNPRPPAPEAWSEPVLLAKGSCAYSDLQSMGTGPDGSPLFGCLYEANDYEEIVFLMFTLKQAFPAEYLPQ
notes: NEU2, cytosolic sialidase; source: E. coli BL21(DE3), purified (Glutathione Sepharose 4B)
